# Test: label from the status in PepcDB records
row,Sequence,protein production
1,MDVIKISPRGYCYGVVDAMVIAKNASLDKSLPRPIYILGMIVHNKHVTDAFEEEGILTLDGSNRLDILKQVDKGTVIFTAHGVSPEVRRIAEEKGLVAIDATCPDVTKTHNLILEMKEKGYHVIYIGKKGHPEPEGAVGVAPEIVHLVETEEDVKNLDIQSEKLIVTNQTTMSQWDVHDIMELVKEKYPHVEYHQEICLATQVRQEAVSEQAKKADLTIVVGDPKSNNSNRLAQVSEEIAGTKAYRIGDLSELKLEWLKGVNTVAVTAGASTPTPITKEVIRFLEQFDHE,failed
2,MDVKKDENSILENMKQEINHSLKEEAQEEEEILKKRISSHPLYGLLLHSHLNCLKVCSGDFDSPEIMNTADDLALSKLSLHPDSSSEATSSELDQFMVLFFFSPCQNIFTQQKTTFHVLLFFPLQINLTFKYSKFILPRKKQ,failed
3,MDVKQTLEKAIALRQNKRYQESNAILVTLCKEHAHDPQILYQCGWSFDVLGLEAQAVPYYEKAIASGLQGKDLAECYLGLGSTFRTLGEYRKAEAVLANGVKQFPNHQALRVFYAMVLYNLGRYEQGVELLLKIIAETSDDETIQSYKQAILFYADKLDETWKALEHHHHHH,not failed
4,MDVSNKDAKRTDTIILANFDPITKEAKLISIPRDTRVKIGGKSQKINAAYPIGGEKLVKQLVGNILGVKVDYVVKVDYEGFRGIIDAIGGIDMYIEQDMNYDDPGQDLHIHFNKGETVHLDGKKAEEFFRWRKNNDGTGLVNGDVDRIKNQQKFINAVIDKVLSVSTITKIDSIAEILNKNIETNIPLDVTVAYGLKGLETDKNNIKMMTLPGEGKYVGNVSYYIPDEKATKELRSQLNSSNLSGRKNVIPSAARGDLSIKVLNCTKINGLAANVQKQLNENGYDKVDLEHHHHHH,not failed
5,MDVSVFLAALGISLLELTEAGAIAAIYHNIYKNNLPFIYAVLGVAIVLIPTFTLGKLIYLVPLNYVLLASAVILFYFGYRLIRSARRSFKGIKKKGGEEKEEGLSVVFTVSAIEGLEASLVILALIPQSYSSAVMGAILASVLVVILTAILKSQVARIRLPHLKFVLSALLFSLGTLWISEVVFDIPDLILPLFFLAYLGINYVIIKI,failed
6,MDVYHDGACPEVKPVDNFDWSQYHGKWWEVAKYPSPNGKYGKCGWAEYTPEGKSVKVSRYDVIHGKEYFMEGTAYPVGDSKIGKIYHSRTVGGYTKKTVFNVLSTDNKNYIIGYSCRYDEDKKGHWDHVWVLSRSMVLTGEAKTAVENYLIGSPVVDSQKLVYSDFSEAACKVNNSNWSHPQFEK,not failed
7,MDYFLLHGGGNADRQSGGVHRWLAGAIRELGMLVAETSGHDAFLEQIGAVHPEVVFVRFASSPARIDVPEHDQKLGEGTDAIGEATQLVAQLTRLFPGLPLVAVGSASDGRAMLAALRAGVKDFIDVDGAPAEAVRVVRRLLAERASAEPTRRGRVLAILGARPGVGTTTLASNLATLVRRTSGGDVMLLDLGQPLRDGALYLNVPANFHFVEAVRNLRRFDQVFVQTALSRHPNGLAVLPLPVSLAEMRDISFSEALGLLNRLRTFFDLQVVDLGGFNNIDFIAQLVKAADDVMLVTEQSVGAIVSAAELMQELKKREIDRERLHLILSKFDARLSLDAEQIGVRLEIPSVLTVPSRRRALVVASNQGAMLAETHPIDPYVRAIAGIVQTLGYTQPGERAPGVAGWMAGMRARLGERFRRKPTEPAELDLRTTERNAT,failed
8,MDYGMYFFEHVTPYETLVRRMERVIASGKTPFQDYFLFESKGFGKVLILDKDVQSTERDEYIYHETLVHPAMLTHPEPKRVLIVGGGEGATLREVLKHPTVEKAVMVDIDGELVEVAKRHMPEWHQGAFDDPRAVLVIDDARAYLERTEERYDVVIIDLTDPVGEDNPARLLYTVEFYRLVKAHLNPGGVMGMQAGMILLTHHRVHPVVHRTVREAFRYVRSYKNHIPGFFLNFGFLLASDAFDPAAFSEGVIEARIRERNLALRHLTAPYLEAMFVLPKDLLEALEKETMVSTDQNPFYVTPEGEARQAPYKG,not failed
9,MDYKPLAKEILKNIGTKSNVRSITHCVTRVRFVLNDESQANDEVIRDLDGVLDVVKQGGQYQVVIGPSVGSVYDAIIDVANFSDNVINSSEIAAPTSDETEEKGFLNKALGLISSIFIPVLGLLSGAGMIKAILSLCTVTGLLTAKSGTYIILSALGDTLFYFFPIVVGWSAARKFGLKEIYGVTLGAFLVYPTLATAASSTAVTTIFKGTIFALKYKMTFLGIPVALQSYSSTVIPIIIIVWFASYVYKYCDKVIPDVLKMVFVPFFTLLIAGVVSLIVIGPIAMILQNILSDTVLWLVGLNKGIAGFLLGFFWSILVMFGLHWAVIPFFAIDVAHYGYDVINPLIFAGGLAVLGSAIGVAIRARDERVKSMSVAAAISAFFGINEPALYGVLIPRKKVLLTSFLAAGIGGAIAGFSGSKLYSFGASGILGLPCFINPKGIDAGFIGLCISGIVAFVFALIAALIAGAKKDAKSKPAERHLAEHSDVYAPVAGESFDLTTVHDDVFSKLVLGDGIAVKPSDGKVYAPVTGIVRVAYPTGHAVGLASDDGEEVLIHIGIDTVNLEGKHFKMHVAQGMRVKKGDLLVDFDEAAISAAGYDTTVMMVVTKSERLKSVMPTQFGPVTKDTKVLDVELQSNSVESVTAVATND,failed
10,MDYKVSVLIVCYNQEKYIKKALESVLSQKVNFNYEIVVCDDCSSDRTFNILQEYKSKLGSKLNLIRNYKNLGITLNYKNGFKNCKGEYIAVLEGDDYWIQKSKLKRQVSFLESNRDCSLVFNKIVLDYGDEKINNLIYPFNDIRKKFSARELVRSNFIQNFSCCMYRKSSIRKLRESIYDMVVYDWMFNMAVAQFGLIGYIPNYMTSHRILKSGLWSGKSKMENLQMISKCIDQYDSFFKYKYRKEFSQNKQEVLQALRRLVMVNENGLEHHHHHH,not failed
11,MDYMERPKLGLIVREPYASLIVDGRKVWEIRRRKTRHRGPLGIVSGGRLIGQADLVGVEGPFSVEELLAHQEKHLAEEAFLRAYAKDEPLYAWVLENAFRYEKPLHVPRRPGRVMFVDLSEVRW,not failed
12,MDYNQTVLSHLQKFWKHHDIKGFTWTLGRIVEELPDFQVFQVIPNHEDEPWVYVSSGIGQFLGQEFFIISPFETPEHIETLAMLASASMHYPDQFQLGKTVNIGRPWVEQSSFRHFLISLPYPYGQELEYMDNVRFFWLLPITQTERLFLNTHSVEELETKFDEAGIDYLDINRASTVWQAG,not failed
13,MDYREVDSTSEFVCRLEHGGDWRAQIEAFADEQGIDAGFFYGLGAVQDAELMFYDQDRTEYDSLTFDEPLEVAACMGNISHFDGERFAHTHAVLSRPDGEAVAGHLNAGTVWAGELYVRGFDTELQREHDEPTDLDLWNILEHHHHHH,failed
14,MDYSNTYGAYGGGGFLPESPARTGGNASTRFGVGSGSSLRDQRRSLLPVRVADLVHAVHDPVTNTFVLRDENEHQSITISEGSIVKVVAYVEELREQPLDLLWLLDDRSGEMIWARMASTSSSSLAALEQSGILVRVFGQLLEVDGRRVLNVRAIRKADGEVELRYHENLCQLSKLQLIRGYPTAGNALAGASSSPASPKAGPSKAVHRSSLGSGAPKEMAQQAPGLEIPAAFPPEHFKVLKCIREETARNRDAMLTDIAQRIALSTTKVRGICDALQNEGHIYCTLDDDTFRASSS,not failed
15,MEAARSMTFSECAALYIKAHRSSWKNTKHADQWTNTIKTYCGPVIGPLSVQDVDTKLIMKVLDPIWEQKPETASRLRGRIESVLDWATVRGYREGDNLEHHHHHH,failed
16,MEAAVNAAEAYSHIRAVMGMVVGLSLARLLTGLAGFVQHPKKERIYLLHIGWVAFLFLMLVHFWWWEHRLSATGHVLDFGAFLFLILFCSLFYFLCVLLFPTDMKEYKGYEDYFFSRKSWFFAFLAALFVTDVGDTLLKGHDYLASLGPEYLIRTAIYVVLFTAAAFIDNRRFHRFLVIFALVYQIAWIFRTYDLLA,failed
17,MEAEEIIGLLKKGDLEKAKDALSKEIDNLSDEELKEILEVAESVAKEKEDIELLKLVVYYYAEFFGIDKLEEFEGIAKEKGYEGLMHLADLYSLLGYPEKALDIYRELLKTDLIKEKEHIGEIYYGIATIHDELQEYDKALEAINEAVKAFKESNNVEKLHQAEVYRAYITFENGDRDKAKEILAGLLPHVTNREIKAQIHLVFKEIFEDEENYEAAIQESLYSLIEGIDTEVFDLAFDGLIDLIWELILEDKFEEIYKSMPMFKVAIPSLKDFFEGVRRIAMYREGKIGREEVSEILMKVKDERLVSILEFLGEAEV,failed
18,MEAFGGFVMDEQAIQVENVFLEFLKSFRLDANKPELYYEAEIEAIRGGESTMMYIDFSHVMGFNDALQKAIADEYLRFEPYLRNACKRFVIEMNPSFISDDTPNKDINVSFYNLPFTKRLRELTTAEIGKLVSVTGVVTRTSEVRPELLYGTFKCLDCGSVIKNVEQQFKYTQPTICVSPTCLNRARWALLRQESKFADWQRVRMQETSKEIPAGSLPRSLDVILRHEIVEQARAGDTVIFTGTVVVIPDISALAAPGERAECRRDSSQQKSSTAGHEGVQGLKALGVRDLSYRLAFIANSVQIADGSRNTDMRNRQNDSNEDDQQQFTAEELDEIQQMRNTPDYFNKLVGSMAPTVFGHQDIKRAVLLMLLGGVHKTTHEGINLRGDINVCIVGDPSCAKSQFLKYTAGIVPRSVYTSGKSSSAAGLTATVAKEPETGEFCIEAGALMLADNGICCIDEFDKMDIKDQVAIHEAMEQQTISITKAGIQATLNARTSILAAANPVGGRYDKSKPLKYNVNLPPAILSRFDLVYVMIDDPDEVTDYHIAHHIVRVHQKHEAALSPEFTTVQLKRYIAYAKTLKPKLSPEARKLLVESYVALRRGDTTPGTRVAYRMTVRQLEALIRLSEAIARSHLEILVKPSHVLLAVRLLKTSVISVESGDIDLSEYQDANGDNMDDTDDIENPVDGEEDQQNGAAEPASATADNGAAAQKLVISEEEYDRITQALVIRLRQHEETVNKDSSELPGIRQKELIRWFIDQQNEKKKYSSQEQVKLDIKKLRAIIESLVCKEGHLIVLANEQEEAAEAEETKKKSSQRDERILAVAPNYVIE,failed
19,MEAIFWLALALVAFTYAGYPLVLAVWDGAREALAAVRFVSGGDDRRGRATEGWPTVTLLFSAFDEEAWIRRKIENCLALDYPPDRLEILVGCDGCTDRTAEIAREVGGSRVKVHALSPRAGKASVLSRLVPQARGDLVVLTDANVMLERGALRALARRFREPGVGAVVGRLRLFNPTRREFEESLYWKYETAIKYYEGKHGCVLGANGGIYAIRRILFSPLPPDTIVDDFVIPVRIAARGWEVPFEPEAVAFEETTEDAGHEFGRRARIGAGNWQALARVPELLDPRTGFLCFAFVSHKLLRWSAPFLLAAAAVANGLLAAAPGAWGYRALLLAQAAFYGLALAGRHGAVGLRGPVRRLASLAHYFVAMNAALAVGLWRFLRRSQRAAWQRTERAGPSVPAA,failed
20,MEAITYKYYQEKYYGNILNEEDFKRYEKKARRKLSSFTFGRIDCLQNVPDEVGDCICDMAEKISLEESKENFSGIVSESTDGHSVTFEKKQSIEQMNKELYLIAVGYLNNTGLLYGGVCLCSTARNW,failed
21,MEAKQAAGALLTVVGVLLILYAIYSGFVNETIGSTEKFSADAAAMIVGWFAVLIGPALLFGETPAAVRKAAGR,failed
22,MEALDWLVIGVFFLALIGIIVWVVRQKQNDSADYFLGGRDATWLAIGASIFASNIGSEHLIGLAGAGASSGMAMAHWEIQGWMILILGWVFVPFYSRSMVYTMPEFLERRYNPQSRTILSVISLVSYVLTKVAVTVYAGGLVFQQVFGIKELWGIDFFWIAAIGLVVLTALYTIFGGMKSVLYTSVLQTPILLLGSLIILVLGFKELGGWDEMMRVCGAVTVNDYGDTMTNLIRSNDDANFPWLGALIGSAIIGFWYWCTDQFIVQRVLSGKNEKEARRGTIFGAYLKLLPVFLFLIPGMIAFALHQKYIGAGGEGFLPMLANGTANADAAFPTLVAKLLPAGVKGLVVCGILAALMSSLASLFNSSAMLFTIDFYKRFRPETPEKKLVGIGQIATVVIVILGILWIPIMRSVGDVLYTYLQDVQSVLAPGIAAAFLLGICWKRTSAQGGMWGLIAGMIIGLTRLGAKVYYSNAGEVADSTFKYLFYDMNWLFFCGWMFLFCIIVVIVVSLATEAPTAEKIQGLVFGTATKEQKAATRASWDHWDIIHTVIILAITGAFYWYFW,failed

# Reference: a protein production outcome set (Wang et al. 2014)
